# Data published in paper PMC8510580, “HspB8 prevents aberrant phase transitions of FUS by chaperoning its folded RNA-binding domain” (eLife, 2021).
# Changes are numbered by the printed parent chain. Numbers in names are those of the source.
# B1: HspB8-WT (natural protein, UniProt Q9UJY1 1-196, looked up)
# chain: MADGQMPFSCHYPSRLRRDPFRDSPLSSRLLDDGFGMDPFPDDLTASWPDWALPRLSSAWPGTLRSGMVPRGPTATARFGVPAEGRTPPPFPGEPWKVCVNVHSFKPEELMVKTKDGYVEVSGKHEEKQQEGGIVSKNFTKKIQLPAEVDPVTVFASLSPEGLLIIEAPQVPPYSTFGESSFNNELPQDSQEVTCT
# notes: small heat shock protein HspB8; IDR printed as AA1-71 and alpha-crystallin domain as AA72-196; The article's keywords name Human as organism; also called small heat shock protein HspB8; source: E. coli BL21 Codon RIL, purified (GST, PreScission cleavage, reverse GST, ResourceQ); not shown: GST, N-terminal, cleaved
# B2: HspB8-K141E (natural protein, UniProt Q9UJY1 1-196, looked up)
# chain: B1 chain with K141E
# notes: small heat shock protein HspB8 with the Charcot-Marie Tooth disease-associated mutation K141E in the alpha-crystallin domain; Same construct as m2 with K141E; also called K141E mutant; HspB8-K141E mutant; source: E. coli BL21 Codon RIL, purified (GST, PreScission cleavage, reverse GST, ResourceQ); not shown: GST, N-terminal, cleaved
# B3: FUS-G156E-GFP (FUSm) (natural protein, human, UniProt P35637 1-526, looked up)
# chain: MASNDYTQQATQSYGAYPTQPGQGYSQQSSQPYGQQSYSGYSQSTDTSGYGQSSYSSYGQSQNTGYGTQSTPQGYGSTGGYGSSQSSQSSYGQQSSYPGYGQQPAPSSTSGSYGSSSQSSSYGQPQSGSYSQQPSYGGQQQSYGQQQSYNPPQGYEQQNQYNSSSGGGGGGGGGGNYGQDQSSMSSGGGSGGGYGNQDQSGGGGSGGYGQQDRGGRGRGGSGGGGGGGGGGYNRSSGGYEPRGRGGGRGGRGGMGGSDRGGFNKFGGPRDQGSRHDSEQDNSDNNTIFVQGLGENVTIESVADYFKQIGIIKTNKKTGQPMINLYTDRETGKLKGEATVSFDDPPSAKAAIDWFDGKEFSGNPIKVSFATRRADFNRGGGNGRGGRGRGGPMGRGGYGGGGSGGGGRGGFPSGGGGGGGQQRAGDWKCPNPTCENMNFSWRNECNQCKAPKPDGPGGGPGGSHMGGNYGDDRRGGRGGYDRGGYRGRGGDRGGFRGGRGGGDRGGFGPGKMDSRGEHRQDRRERPY
# notes: FUS (fused in sarcoma), human, UniProt P35637, with G156E; also called FUSm-GFP; source: Sf9 cells, purified as described (Patel et al., 2015); not shown: 5 AA tag used for purification, N-terminal, kept; GFP, C-terminal, kept
# Tests used:
# FUS-G156E-GFP (FUSm) = target: B3; assay: cross-linking; XL-MS of FUSm (or FUSm_K9) mixed with the partner under condensate-inducing low salt (75 mM): low-salt mixture or dense phase separated by centrifugation; H12/D12 DSS, 30 min, 37°C; also 3 hr after formation and with an RNA oligonucleotide; settings: both partners purified
# Taf-15 = target: T1, Taf-15 (UniProt Q92804 1-592); assay: MST; 33 nM FUSm, partner titrated; non-phase separating conditions (500 mM KCl); settings: both partners purified
# T1 construct: stress granule protein Taf-15; no methods for its production; also called stress granule protein Taf-15
# T1 sequence (Q92804 whole entry): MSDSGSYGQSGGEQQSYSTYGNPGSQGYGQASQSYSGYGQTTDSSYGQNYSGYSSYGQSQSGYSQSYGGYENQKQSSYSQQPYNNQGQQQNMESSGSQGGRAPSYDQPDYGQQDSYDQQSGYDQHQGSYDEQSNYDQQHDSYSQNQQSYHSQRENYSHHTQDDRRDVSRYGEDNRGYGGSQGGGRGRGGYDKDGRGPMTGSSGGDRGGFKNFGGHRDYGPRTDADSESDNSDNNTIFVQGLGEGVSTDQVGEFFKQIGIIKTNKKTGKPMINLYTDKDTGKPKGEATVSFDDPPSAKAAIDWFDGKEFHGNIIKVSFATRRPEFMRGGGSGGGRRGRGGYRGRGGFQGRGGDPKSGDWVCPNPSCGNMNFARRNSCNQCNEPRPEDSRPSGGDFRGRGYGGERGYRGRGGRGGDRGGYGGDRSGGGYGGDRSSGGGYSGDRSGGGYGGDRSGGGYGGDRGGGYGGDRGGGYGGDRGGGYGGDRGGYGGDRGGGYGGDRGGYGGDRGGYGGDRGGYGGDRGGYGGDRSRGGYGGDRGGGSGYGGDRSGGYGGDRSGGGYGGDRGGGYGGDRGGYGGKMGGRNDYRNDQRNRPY
# [1] = target: the molecule itself; assay: cross-linking; quantitative XL-MS of FUSm alone: low salt (75 mM KCl, condensates) against high salt (500 mM KCl, no phase separation); 1.9 mM H12/D12 DSS, 30 min, 37°C
binding result (FUS-G156E-GFP (FUSm)),Kd (Taf-15) [nM],Binder,binding result [1]
binds,,B1,
binds,,B2,
,260,B3,binds
